Numbered stars: 1 amine (or outer) side, 2 acyl side, 3 side chain; on linkers, the order of the positions; unused ones are H or OH. Bridge positions count the residues as written; N and C are the ends. Side chains are listed from the residue outwards. Ends that are not written are not given here. * marks the point of attachment. C20 diacid = O=C(O)CCCCCCCCCCCCCCCCCCC(=O)*; γGlu = O=C(O)[C@H](CCC(=O)[*:2])N[*:1]; AEEA = NCCOCCOCC(=O)O
T1: human calcitonin receptor (human, UniProt P30988 25-474)
T1 sequence (looked up): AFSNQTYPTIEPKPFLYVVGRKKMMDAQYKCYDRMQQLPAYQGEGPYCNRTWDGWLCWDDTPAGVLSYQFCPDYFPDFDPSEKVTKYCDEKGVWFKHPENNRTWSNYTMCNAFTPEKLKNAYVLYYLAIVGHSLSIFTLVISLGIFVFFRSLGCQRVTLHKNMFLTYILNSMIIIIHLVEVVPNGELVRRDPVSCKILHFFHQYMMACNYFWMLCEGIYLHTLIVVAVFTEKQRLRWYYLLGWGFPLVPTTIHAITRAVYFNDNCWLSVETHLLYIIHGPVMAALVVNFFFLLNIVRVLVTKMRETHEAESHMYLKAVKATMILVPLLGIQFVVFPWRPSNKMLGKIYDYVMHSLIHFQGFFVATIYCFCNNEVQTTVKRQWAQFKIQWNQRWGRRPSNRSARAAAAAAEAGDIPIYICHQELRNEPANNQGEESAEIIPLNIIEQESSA


Molecular target: T1, human calcitonin receptor
Assay: cell-based or functional assay

hCTR funct. EC50 [nM]	Binder
21.5	K([AEEA-AEEA-γGlu-C20 diacid])CNTATCATQRLANFLRHSSPNFGAIPSSTNVGRNTY-NH2 (disulfide 2-7; N-terminus assumed; SMILES CC[C@H](C)[C@H](NC(=O)[C@H](C)NC(=O)CNC(=O)[C@H](Cc1ccccc1)NC(=O)[C@H](CC(N)=O)NC(=O)[C@@H]1CCCN1C(=O)[C@H](CO)NC(=O)[C@H](CO)NC(=O)[C@H](Cc1c[nH]cn1)NC(=O)[C@H](CCCNC(=N)N)NC(=O)[C@H](CC(C)C)NC(=O)[C@H](Cc1ccccc1)NC(=O)[C@H](CC(N)=O)NC(=O)[C@H](C)NC(=O)[C@H](CC(C)C)NC(=O)[C@H](CCCNC(=N)N)NC(=O)[C@H](CCC(N)=O)NC(=O)[C@@H](NC(=O)[C@H](C)NC(=O)[C@@H]1CSSC[C@H](NC(=O)[C@@H](N)CCCCNC(=O)COCCOCCNC(=O)COCCOCCNC(=O)CC[C@H](NC(=O)CCCCCCCCCCCCCCCCCCC(=O)O)C(=O)O)C(=O)N[C@@H](CC(N)=O)C(=O)N[C@@H]([C@@H](C)O)C(=O)N[C@@H](C)C(=O)N[C@@H]([C@@H](C)O)C(=O)N1)[C@@H](C)O)C(=O)N1CCC[C@H]1C(=O)N[C@@H](CO)C(=O)N[C@@H](CO)C(=O)N[C@H](C(=O)N[C@@H](CC(N)=O)C(=O)N[C@H](C(=O)NCC(=O)N[C@@H](CCCNC(=N)N)C(=O)N[C@@H](CC(N)=O)C(=O)N[C@H](C(=O)N[C@@H](Cc1ccc(O)cc1)C(N)=O)[C@@H](C)O)C(C)C)[C@@H](C)O, also called compound 95)
1.63	K([AEEA-AEEA-γGlu-C20 diacid])CNTATCATQRLANFLRHSSPNFGAIPSSTNVGPNTY-NH2 (disulfide 2-7; N-terminus assumed; SMILES CC[C@H](C)[C@H](NC(=O)[C@H](C)NC(=O)CNC(=O)[C@H](Cc1ccccc1)NC(=O)[C@H](CC(N)=O)NC(=O)[C@@H]1CCCN1C(=O)[C@H](CO)NC(=O)[C@H](CO)NC(=O)[C@H](Cc1c[nH]cn1)NC(=O)[C@H](CCCNC(=N)N)NC(=O)[C@H](CC(C)C)NC(=O)[C@H](Cc1ccccc1)NC(=O)[C@H](CC(N)=O)NC(=O)[C@H](C)NC(=O)[C@H](CC(C)C)NC(=O)[C@H](CCCNC(=N)N)NC(=O)[C@H](CCC(N)=O)NC(=O)[C@@H](NC(=O)[C@H](C)NC(=O)[C@@H]1CSSC[C@H](NC(=O)[C@@H](N)CCCCNC(=O)COCCOCCNC(=O)COCCOCCNC(=O)CC[C@H](NC(=O)CCCCCCCCCCCCCCCCCCC(=O)O)C(=O)O)C(=O)N[C@@H](CC(N)=O)C(=O)N[C@@H]([C@@H](C)O)C(=O)N[C@@H](C)C(=O)N[C@@H]([C@@H](C)O)C(=O)N1)[C@@H](C)O)C(=O)N1CCC[C@H]1C(=O)N[C@@H](CO)C(=O)N[C@@H](CO)C(=O)N[C@H](C(=O)N[C@@H](CC(N)=O)C(=O)N[C@H](C(=O)NCC(=O)N1CCC[C@H]1C(=O)N[C@@H](CC(N)=O)C(=O)N[C@H](C(=O)N[C@@H](Cc1ccc(O)cc1)C(N)=O)[C@@H](C)O)C(C)C)[C@@H](C)O, also called compound 98)
3.8	K([AEEA-AEEA-γGlu-C20 diacid])CNTATCATQRLANFLRHSSPNFGAIPSSTPVGSNTY-NH2 (disulfide 2-7; N-terminus assumed; SMILES CC[C@H](C)[C@H](NC(=O)[C@H](C)NC(=O)CNC(=O)[C@H](Cc1ccccc1)NC(=O)[C@H](CC(N)=O)NC(=O)[C@@H]1CCCN1C(=O)[C@H](CO)NC(=O)[C@H](CO)NC(=O)[C@H](Cc1c[nH]cn1)NC(=O)[C@H](CCCNC(=N)N)NC(=O)[C@H](CC(C)C)NC(=O)[C@H](Cc1ccccc1)NC(=O)[C@H](CC(N)=O)NC(=O)[C@H](C)NC(=O)[C@H](CC(C)C)NC(=O)[C@H](CCCNC(=N)N)NC(=O)[C@H](CCC(N)=O)NC(=O)[C@@H](NC(=O)[C@H](C)NC(=O)[C@@H]1CSSC[C@H](NC(=O)[C@@H](N)CCCCNC(=O)COCCOCCNC(=O)COCCOCCNC(=O)CC[C@H](NC(=O)CCCCCCCCCCCCCCCCCCC(=O)O)C(=O)O)C(=O)N[C@@H](CC(N)=O)C(=O)N[C@@H]([C@@H](C)O)C(=O)N[C@@H](C)C(=O)N[C@@H]([C@@H](C)O)C(=O)N1)[C@@H](C)O)C(=O)N1CCC[C@H]1C(=O)N[C@@H](CO)C(=O)N[C@@H](CO)C(=O)N[C@H](C(=O)N1CCC[C@H]1C(=O)N[C@H](C(=O)NCC(=O)N[C@@H](CO)C(=O)N[C@@H](CC(N)=O)C(=O)N[C@H](C(=O)N[C@@H](Cc1ccc(O)cc1)C(N)=O)[C@@H](C)O)C(C)C)[C@@H](C)O, also called compound 96)
4.76	K([AEEA-γGlu-C20 diacid])CNTATCATQRLAAFLRHSSPNFGAIPSSTPVGSNTY-NH2 (disulfide 2-7; N-terminus assumed; SMILES CC[C@H](C)[C@H](NC(=O)[C@H](C)NC(=O)CNC(=O)[C@H](Cc1ccccc1)NC(=O)[C@H](CC(N)=O)NC(=O)[C@@H]1CCCN1C(=O)[C@H](CO)NC(=O)[C@H](CO)NC(=O)[C@H](Cc1c[nH]cn1)NC(=O)[C@H](CCCNC(=N)N)NC(=O)[C@H](CC(C)C)NC(=O)[C@H](Cc1ccccc1)NC(=O)[C@H](C)NC(=O)[C@H](C)NC(=O)[C@H](CC(C)C)NC(=O)[C@H](CCCNC(=N)N)NC(=O)[C@H](CCC(N)=O)NC(=O)[C@@H](NC(=O)[C@H](C)NC(=O)[C@@H]1CSSC[C@H](NC(=O)[C@@H](N)CCCCNC(=O)COCCOCCNC(=O)CC[C@H](NC(=O)CCCCCCCCCCCCCCCCCCC(=O)O)C(=O)O)C(=O)N[C@@H](CC(N)=O)C(=O)N[C@@H]([C@@H](C)O)C(=O)N[C@@H](C)C(=O)N[C@@H]([C@@H](C)O)C(=O)N1)[C@@H](C)O)C(=O)N1CCC[C@H]1C(=O)N[C@@H](CO)C(=O)N[C@@H](CO)C(=O)N[C@H](C(=O)N1CCC[C@H]1C(=O)N[C@H](C(=O)NCC(=O)N[C@@H](CO)C(=O)N[C@@H](CC(N)=O)C(=O)N[C@H](C(=O)N[C@@H](Cc1ccc(O)cc1)C(N)=O)[C@@H](C)O)C(C)C)[C@@H](C)O, also called compound 72)

The next lines start with the binder.

Binder	hCTR funct. EC50 [nM]
K([AEEA-AEEA-γGlu-C20 diacid])CNTATCATQRLANFLRHSSPNFGAIPSSTNVGHNTY-NH2 (disulfide 2-7; N-terminus assumed; SMILES CC[C@H](C)[C@H](NC(=O)[C@H](C)NC(=O)CNC(=O)[C@H](Cc1ccccc1)NC(=O)[C@H](CC(N)=O)NC(=O)[C@@H]1CCCN1C(=O)[C@H](CO)NC(=O)[C@H](CO)NC(=O)[C@H](Cc1c[nH]cn1)NC(=O)[C@H](CCCNC(=N)N)NC(=O)[C@H](CC(C)C)NC(=O)[C@H](Cc1ccccc1)NC(=O)[C@H](CC(N)=O)NC(=O)[C@H](C)NC(=O)[C@H](CC(C)C)NC(=O)[C@H](CCCNC(=N)N)NC(=O)[C@H](CCC(N)=O)NC(=O)[C@@H](NC(=O)[C@H](C)NC(=O)[C@@H]1CSSC[C@H](NC(=O)[C@@H](N)CCCCNC(=O)COCCOCCNC(=O)COCCOCCNC(=O)CC[C@H](NC(=O)CCCCCCCCCCCCCCCCCCC(=O)O)C(=O)O)C(=O)N[C@@H](CC(N)=O)C(=O)N[C@@H]([C@@H](C)O)C(=O)N[C@@H](C)C(=O)N[C@@H]([C@@H](C)O)C(=O)N1)[C@@H](C)O)C(=O)N1CCC[C@H]1C(=O)N[C@@H](CO)C(=O)N[C@@H](CO)C(=O)N[C@H](C(=O)N[C@@H](CC(N)=O)C(=O)N[C@H](C(=O)NCC(=O)N[C@@H](Cc1c[nH]cn1)C(=O)N[C@@H](CC(N)=O)C(=O)N[C@H](C(=O)N[C@@H](Cc1ccc(O)cc1)C(N)=O)[C@@H](C)O)C(C)C)[C@@H](C)O, also called compound 97)	11.8
K([AEEA-γGlu-C20 diacid])CNTATCATQRLARFLRHSSPNFGAIPSSTPVGSNTY-NH2 (disulfide 2-7; N-terminus assumed; SMILES CC[C@H](C)[C@H](NC(=O)[C@H](C)NC(=O)CNC(=O)[C@H](Cc1ccccc1)NC(=O)[C@H](CC(N)=O)NC(=O)[C@@H]1CCCN1C(=O)[C@H](CO)NC(=O)[C@H](CO)NC(=O)[C@H](Cc1c[nH]cn1)NC(=O)[C@H](CCCNC(=N)N)NC(=O)[C@H](CC(C)C)NC(=O)[C@H](Cc1ccccc1)NC(=O)[C@H](CCCNC(=N)N)NC(=O)[C@H](C)NC(=O)[C@H](CC(C)C)NC(=O)[C@H](CCCNC(=N)N)NC(=O)[C@H](CCC(N)=O)NC(=O)[C@@H](NC(=O)[C@H](C)NC(=O)[C@@H]1CSSC[C@H](NC(=O)[C@@H](N)CCCCNC(=O)COCCOCCNC(=O)CC[C@H](NC(=O)CCCCCCCCCCCCCCCCCCC(=O)O)C(=O)O)C(=O)N[C@@H](CC(N)=O)C(=O)N[C@@H]([C@@H](C)O)C(=O)N[C@@H](C)C(=O)N[C@@H]([C@@H](C)O)C(=O)N1)[C@@H](C)O)C(=O)N1CCC[C@H]1C(=O)N[C@@H](CO)C(=O)N[C@@H](CO)C(=O)N[C@H](C(=O)N1CCC[C@H]1C(=O)N[C@H](C(=O)NCC(=O)N[C@@H](CO)C(=O)N[C@@H](CC(N)=O)C(=O)N[C@H](C(=O)N[C@@H](Cc1ccc(O)cc1)C(N)=O)[C@@H](C)O)C(C)C)[C@@H](C)O, also called compound 64)	22.9

— US20140087995A1 (published 2014)
